Test results from US20240368285A1 (HEFEI TG IMMUNOPHARMA, published 2024).

T1: MICA on human tumor cells (A-375, A549, HCT-15, MDA-MB-231) (human, UniProt Q29983 24-383)
T1 construct: whole, on cells
T1 sequence (looked up): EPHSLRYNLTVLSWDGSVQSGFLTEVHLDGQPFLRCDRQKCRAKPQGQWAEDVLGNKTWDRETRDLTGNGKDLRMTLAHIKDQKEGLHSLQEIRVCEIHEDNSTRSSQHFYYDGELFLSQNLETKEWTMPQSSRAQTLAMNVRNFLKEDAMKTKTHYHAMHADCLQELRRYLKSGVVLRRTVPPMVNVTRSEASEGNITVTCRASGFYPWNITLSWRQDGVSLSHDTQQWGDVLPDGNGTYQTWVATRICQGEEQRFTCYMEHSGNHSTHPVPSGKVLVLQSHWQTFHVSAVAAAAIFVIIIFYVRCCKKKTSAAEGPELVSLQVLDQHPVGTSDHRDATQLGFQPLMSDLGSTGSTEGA


What was measured:
MICB005α3-Fc = biological target: T2, MICB005α3-Fc; assay: ELISA on coated MICB*005 α3-Fc (1 µg/ml), HRP anti-human Fab secondary, OD450
T2 construct: also called MICB*005-Fc; domain α3 of MICB-005 Fc fusion protein

MICA005α3-Fc = biological target: T3, MICA005α3-Fc (human); assay: ELISA on coated MICA*005 α3-Fc (1 µg/ml), HRP anti-human Fab secondary, OD450
T3 construct: also called MICA*005-Fc; domain α3 of MICA-005 Fc fusion protein

MICB001α3-Fc = biological target: T4, MICB001α3-Fc; assay: ELISA on coated MICB*001 α3-Fc (1 µg/ml), HRP anti-human Fab secondary, OD450
T4 construct: also called MICB*001-Fc; domain α3 of MICB-001 Fc fusion protein

MICA002α3-Fc = biological target: T5, MICA002α3-Fc (human); assay: ELISA on coated MICA*002 α3-Fc (1 µg/ml), HRP anti-human Fab secondary, OD450
T5 construct: Produced in the Applicant's laboratory; also called MICA*002-Fc; domain α3 of MICA-002 Fc fusion protein

[1] = biological target: T1, MICA on human tumor cells (A-375, A549, …); assay: flow cytometry on A-375 cells, Alexa-647 goat anti-human secondary, % binding ratio
Protocol: (§1) (2) Tumor cells were diluted to a density of 2×10⁶/mL with PBS and added into a 1.5 ml EP tube in a volume of 100 l/tube. 10 l/tube of goat serum was added into the EP tube; and blocking was conducted at 4° C. for 30 min. […] The tube was incubated at 4° C. for 30 min. 1 mL of PBS was added into the EP tube, and centrifugation was conducted 4° C. at a rate of 3,500 rpm for 5 min. The supernatant was removed. Then, the EP tube was washed once with the PBS, and the supernatant was removed after centrifugation. The cells were resuspended with PBS in a volume of 100 l/tube. An Alexa-647 labeled goat anti-human secondary antibody (purchased from Jackson lab) was added into the tube in a volume of 1 l/tube, and the tube was incubated in the dark at 4° C. for 30 min. The tube was washed twice with PBS, and the supernatant was removed after centrifugation. The cells were resuspended with the PBS in a volume of 200 l/tube, and detection was conducted by a flow cytometer. The results are as shown in FIG. 17A and FIG. 17B, FIG. 18A and FIG. 18B, FIG. 19A and FIG. 19B, and FIG. 20A and FIG. 20B.

[2] = biological target: T1, MICA on human tumor cells (A-375, A549, …); assay: flow cytometry on HCT-15 cells, Alexa-647 goat anti-human secondary, % binding ratio
Protocol: as §1

[3] = biological target: T1, MICA on human tumor cells (A-375, A549, …); assay: flow cytometry on A-549 cells, Alexa-647 goat anti-human secondary, % binding ratio
Protocol: as §1

MICA008α3-Fc = biological target: T6, MICA008α3-Fc (human); assay: ELISA on coated MICA*008 α3-Fc (1 µg/ml), HRP anti-human Fab secondary, OD450
T6 construct: also called MICA*008-Fc; domain α3 of MICA-008 Fc fusion protein

[4] = biological target: T1, MICA on human tumor cells (A-375, A549, …); assay: flow cytometry competition on HCT-15 cells; competitor: Biotin-h5A1002, detected with Alexa-647 streptavidin; % binding ratio of Biotin-h5A1002
Protocol: HCT-15 cells were diluted to a density of 2×10⁶/mL with PBS and added into a 1.5 ml EP tube in a volume of 100 l/tube. 10 l/tube of goat serum was added into the EP tube, and blocking was conducted at 4° C. for 30 min. […] The tube was incubated at 4° C. for 30 min. A biotin-labeled affinity maturation antibody Biotin-h5A1002 (having a heavy chain sequence as set forth in SEQ ID NO: 13 and a light chain sequence as set forth in SEQ ID NO: 14) was added. The tube was incubated at 4° C. for 30 min. 1 mL of PBS was added into the EP tube, and centrifugation was conducted 4° C. at a rate of 3,500 rpm for 5 min. The supernatant was removed. The EP tube was washed once with the PBS, and the supernatant was removed after centrifugation. The cells were resuspended with PBS in a volume of 100 l/tube. An Alexa-647 labeled Streptavidin secondary antibody (purchased from Biolegend) was added into the tube in a volume of 1 l/tube, and the tube was incubated in the dark at 4° C. for 30 min. The tube was washed twice with PBS, and the supernatant was removed after centrifugation. The cells were resuspended with the PBS in a volume of 200 μl/tube, and detection was conducted by a flow cytometer.

MICA004α3-Fc = biological target: T7, MICA004α3-Fc (human); assay: ELISA on coated MICA*004 α3-Fc (1 µg/ml), HRP anti-human Fab secondary, OD450
T7 construct: also called MICA*004-Fc; domain α3 of MICA-004 Fc fusion protein

[5] = biological target: T1, MICA on human tumor cells (A-375, A549, …); assay: flow cytometry on MDA-MB-231 cells, Alexa-647 goat anti-human secondary, % binding ratio
Protocol: as §1

T6 sequence (chain, as listed by the source limits assumed): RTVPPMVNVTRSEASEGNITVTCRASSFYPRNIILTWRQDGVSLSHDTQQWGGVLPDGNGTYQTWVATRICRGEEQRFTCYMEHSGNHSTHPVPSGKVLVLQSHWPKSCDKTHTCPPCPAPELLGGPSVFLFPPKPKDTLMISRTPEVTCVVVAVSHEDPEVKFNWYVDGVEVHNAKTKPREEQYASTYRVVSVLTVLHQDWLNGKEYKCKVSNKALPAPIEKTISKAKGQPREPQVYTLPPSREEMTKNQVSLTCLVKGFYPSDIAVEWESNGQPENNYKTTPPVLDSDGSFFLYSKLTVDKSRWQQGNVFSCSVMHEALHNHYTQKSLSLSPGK
T7 sequence (chain, as listed by the source limits assumed): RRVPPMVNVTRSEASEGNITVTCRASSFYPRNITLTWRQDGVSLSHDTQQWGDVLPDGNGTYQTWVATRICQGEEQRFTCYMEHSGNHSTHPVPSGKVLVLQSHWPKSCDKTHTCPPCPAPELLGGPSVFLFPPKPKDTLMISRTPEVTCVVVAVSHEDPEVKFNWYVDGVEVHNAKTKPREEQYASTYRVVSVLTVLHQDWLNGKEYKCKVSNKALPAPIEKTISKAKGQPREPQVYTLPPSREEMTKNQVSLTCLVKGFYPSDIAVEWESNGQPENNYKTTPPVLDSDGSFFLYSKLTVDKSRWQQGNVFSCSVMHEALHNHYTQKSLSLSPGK
T4 sequence (chain, as listed by the source limits assumed): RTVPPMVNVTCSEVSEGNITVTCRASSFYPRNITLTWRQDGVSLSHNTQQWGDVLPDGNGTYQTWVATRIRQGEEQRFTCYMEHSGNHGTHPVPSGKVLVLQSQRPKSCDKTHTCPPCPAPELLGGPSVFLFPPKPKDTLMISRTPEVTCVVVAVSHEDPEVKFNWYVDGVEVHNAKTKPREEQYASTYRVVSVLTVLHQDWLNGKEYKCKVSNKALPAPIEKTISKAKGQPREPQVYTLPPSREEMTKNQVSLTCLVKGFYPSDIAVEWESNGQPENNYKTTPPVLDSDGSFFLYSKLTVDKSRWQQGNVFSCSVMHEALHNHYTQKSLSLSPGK
T2 sequence (chain, as listed by the source limits assumed): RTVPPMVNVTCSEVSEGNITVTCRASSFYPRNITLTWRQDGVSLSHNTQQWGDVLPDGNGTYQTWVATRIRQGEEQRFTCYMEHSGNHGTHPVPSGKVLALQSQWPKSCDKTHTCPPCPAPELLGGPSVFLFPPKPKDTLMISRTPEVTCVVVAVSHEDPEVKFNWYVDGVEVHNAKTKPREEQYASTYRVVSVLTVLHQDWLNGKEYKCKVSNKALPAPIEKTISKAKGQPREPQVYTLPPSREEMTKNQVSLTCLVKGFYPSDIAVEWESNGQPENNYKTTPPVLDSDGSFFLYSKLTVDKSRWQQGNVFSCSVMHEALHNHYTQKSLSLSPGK
T5 sequence (chain, as listed by the source limits assumed): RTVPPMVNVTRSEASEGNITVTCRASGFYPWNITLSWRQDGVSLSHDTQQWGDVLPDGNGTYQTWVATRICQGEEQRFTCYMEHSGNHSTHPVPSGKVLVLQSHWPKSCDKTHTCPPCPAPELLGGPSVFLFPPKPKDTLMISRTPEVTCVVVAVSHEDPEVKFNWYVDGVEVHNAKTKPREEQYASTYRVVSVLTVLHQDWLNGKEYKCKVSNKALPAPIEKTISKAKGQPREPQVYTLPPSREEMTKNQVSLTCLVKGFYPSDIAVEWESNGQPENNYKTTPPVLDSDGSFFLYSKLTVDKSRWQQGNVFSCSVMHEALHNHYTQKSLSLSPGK
T3 sequence (chain, as listed by the source limits assumed): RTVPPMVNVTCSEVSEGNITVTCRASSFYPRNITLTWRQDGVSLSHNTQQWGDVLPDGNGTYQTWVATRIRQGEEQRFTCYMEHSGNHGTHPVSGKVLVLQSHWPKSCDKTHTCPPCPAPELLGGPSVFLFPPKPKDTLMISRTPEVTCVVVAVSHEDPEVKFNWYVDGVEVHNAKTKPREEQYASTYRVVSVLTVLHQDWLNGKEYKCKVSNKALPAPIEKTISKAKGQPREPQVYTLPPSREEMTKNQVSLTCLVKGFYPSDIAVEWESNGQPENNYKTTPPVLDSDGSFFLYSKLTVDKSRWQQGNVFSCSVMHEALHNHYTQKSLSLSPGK

Row | Binder | EC50 (read off the curve) (MICB005α3-Fc) [µg/mL] | EC50 (read off the curve) (MICA005α3-Fc) [µg/mL] | EC50 (read off the curve) (MICB001α3-Fc) [µg/mL] | EC50 (read off the curve) (MICA002α3-Fc) [µg/mL] | EC50 (read off the curve) [1] [µg/mL] | EC50 (read off the curve) [2] [µg/mL] | EC50 (read off the curve) [3] [µg/mL] | EC50 (read off the curve) (MICA008α3-Fc) [µg/mL] | IC50 (read off the curve) [4] [µg/mL] | EC50 (read off the curve) (MICA004α3-Fc) [µg/mL] | EC50 (read off the curve) [5] [µg/mL]
1 | antibody CLN-619 (Cullinan) (antibody, human IgG1, kappa, V domains shown, hIgG1 subtype) VH: QVQLVESGGGLVKPGGSLRLSCAASGFTFSNYAMSWIRQAPGKGLEWVSYISPGGDYIYYADSVKGRFTISRDNAKNSLYLQMNSLRAEDTAVYYCTTDRRHYGSYAMDYWGQGTLVTVSS VL: DIVMTQSPLSLPVTPGEPASISCRSSKSLLHSNLNTYLYWFLQKPGQSPQILIYRMSNLASGVPDRFSGSGSGTAFTLKISRVEAEDVGVYYCMQHLEYPFTFGPGTKLEIKR | ~0.04 | ~0.2 | ~0.05 | ~0.07 | ~0.7 | ~0.3 | ~0.7 | ~0.1 | ~4 | ~0.04 | ~0.7
2 | antibody 1D5V11 (Genentech) (antibody, human IgG1, kappa, V domains shown, also called homogeneous antibody 1D5V11) VH: EIQLVQSGAEVKKPGASVKVSCKASGYAFTSQNIYWVRQAPGQGLEWIGYIEPYNVVPMYNPKFKGRATLTVDKSTSTAYLELSSLRSEDTAVYYCARSGSSNFDYWGQGTLVTVSS VL: DIQLTQSPSSLSASVGDRVTITCSASSSISSHYLHWYQQKPGKSPKLLIYRTSNLASGVPSRFSGSGSGTDYTLTISSLQPEDFATYYCQQGSSLPLTFGQGTKVEIKR | ~0.04 | ~0.09 | ~0.03 | ~0.05 | ~0.3 | ~0.1 | ~0.4 | ~0.07 | ~5 | ~0.04 | ~0.3
